These results are taken from the Immune Epitope Database (IEDB).

Assay [1] has as its target HLA-A*11:01. Briefly: IEDB peptide-MHC binding, cellular MHC/competitive/fluorescence; ≥ and ≤ were set here for values at or beyond the usual limits of such assays.
For assay [2], the target named is HLA-A*68:01. Described as above.
For assay [3], the target named is HLA-A*33:01. Briefly: IEDB peptide-MHC binding, purified MHC/competitive/radioactivity; ≥ and ≤ were set here for values at or beyond the usual limits of such assays.
Assay [4] deals with HLA-A*31:01. The assay is described as above.
Assay [5] concerns the target HLA-A*33:01. Briefly: IEDB peptide-MHC binding, cellular MHC/competitive/fluorescence; ≥ and ≤ were set here for values at or beyond the usual limits of such assays.
In assay [6] the target is HLA-A*03:01. Briefly: IEDB peptide-MHC binding, purified MHC/competitive/radioactivity; ≥ and ≤ were set here for values at or beyond the usual limits of such assays.
Assay [7] deals with HLA-A*68:01. Described as above.
Assay [8] deals with HLA-A*02:01. Described as above. The conditions noted are these: source organism: Vaccinia virus WR.
Assay [9] concerns the target HLA-A*24:02. Kind of assay: IEDB peptide-MHC binding, cellular MHC/competitive/fluorescence; ≥ and ≤ were set here for values at or beyond the usual limits of such assays. The conditions noted are these: source organism: Vaccinia virus WR.
The target in assay [10] is HLA-A*26:01. Kind of assay: IEDB peptide-MHC binding, purified MHC/competitive/radioactivity; ≥ and ≤ were set here for values at or beyond the usual limits of such assays. As to conditions: source organism: Vaccinia virus WR.
The target of assay [11] is HLA-A*01:01. The description is as above. As to conditions: source organism: Vaccinia virus WR.
Assay [12] concerns the target HLA-A*68:02. The description is as above. As to conditions: source organism: Vaccinia virus WR.
For the next assay, the target named is HLA-A*02:06. The description is as above. The conditions noted are these: source organism: Vaccinia virus WR.
In the next assay the target is HLA-A*02:03. The description is as above. As to conditions: source organism: Vaccinia virus WR.
Assay [13] deals with HLA-A*29:02. The description is as above. The conditions noted are these: source organism: Vaccinia virus WR.
Assay [14] concerns the target HLA-A*23:01. The assay is described as above. As to conditions: source organism: Vaccinia virus WR.
In a further assay the target is HLA-A*30:02. The assay is described as above. As to conditions: source organism: Vaccinia virus WR.
For assay [15], the target named is HLA-A*02:02. The assay is described as above. As to conditions: source organism: Vaccinia virus WR.
Assay [16] concerns the target HLA-A*01:01. Briefly: IEDB peptide-MHC binding, cellular MHC/competitive/fluorescence; ≥ and ≤ were set here for values at or beyond the usual limits of such assays. The conditions noted are these: source organism: Vaccinia virus WR.
The target of assay [17] is HLA-A*68:02. The description is as above. As to conditions: source organism: Vaccinia virus WR.
The target in assay [18] is HLA-A*02:01. Described as above. The conditions noted are these: source organism: Vaccinia virus WR.
Assay [19] deals with HLA-A*29:02. The description is as above. The conditions noted are these: source organism: Vaccinia virus WR.
Assay [20] addresses HLA-A*23:01. Described as above. The conditions noted are these: source organism: Vaccinia virus WR.
In the next assay the target is HLA-B*45:01. The description is as above. As to conditions: source organism: Mammarenavirus guanaritoense.
The target of the next assay is HLA-B*44:03. The description is as above. The conditions noted are these: source organism: Mammarenavirus guanaritoense.
For a further assay, the target named is HLA-B*44:02. The assay is described as above. As to conditions: source organism: Mammarenavirus guanaritoense.
Another assay deals with HLA-B*18:01. The assay is described as above. As to conditions: source organism: Mammarenavirus guanaritoense.
The target in the next assay is HLA-B*40:01. Briefly: IEDB peptide-MHC binding, purified MHC/competitive/radioactivity; ≥ and ≤ were set here for values at or beyond the usual limits of such assays. As to conditions: source organism: Mammarenavirus guanaritoense.
In another assay the target is HLA-B*40:02. The assay is described as above. As to conditions: source organism: Mammarenavirus guanaritoense.
Another assay deals with HLA-B*27:05. The description is as above. The conditions noted are these: source organism: Mammarenavirus choriomeningitidis.
Assay [21] addresses HLA-A*31:01. Briefly: IEDB peptide-MHC binding, cellular MHC/competitive/fluorescence; ≥ and ≤ were set here for values at or beyond the usual limits of such assays.
The target of a further assay is HLA-B*07:02. Described as above.
Another assay deals with HLA-B*51:01. The assay is described as above.
A further assay deals with HLA-B*53:01. Kind of assay: IEDB peptide-MHC binding, purified MHC/competitive/radioactivity; ≥ and ≤ were set here for values at or beyond the usual limits of such assays.
A further assay concerns the target HLA-B*35:01. The description is as above.
The next assay deals with HLA-B*54:01. Described as above.
Assay [22] has as its target HLA-A*26:01. Kind of assay: IEDB peptide-MHC binding, cellular MHC/competitive/fluorescence; ≥ and ≤ were set here for values at or beyond the usual limits of such assays. The conditions noted are these: source organism: Vaccinia virus WR.
Assay [23] deals with HLA-A*02:02. Described as above. As to conditions: source organism: Vaccinia virus WR.
In assay [24] the target is HLA-A*24:02. Briefly: IEDB peptide-MHC binding, purified MHC/competitive/radioactivity; ≥ and ≤ were set here for values at or beyond the usual limits of such assays. The conditions noted are these: source organism: Vaccinia virus WR.
Assay [25] concerns the target HLA-A*03:01. Briefly: IEDB peptide-MHC binding, cellular MHC/competitive/fluorescence; ≥ and ≤ were set here for values at or beyond the usual limits of such assays.
In assay [26] the target is HLA-A*11:01. Kind of assay: IEDB peptide-MHC binding, purified MHC/competitive/radioactivity; ≥ and ≤ were set here for values at or beyond the usual limits of such assays. The conditions noted are these: source organism: Mammarenavirus lassaense.
Setting [27] is: source organism: Mammarenavirus guanaritoense.
The mark [28] stands for this setting: source organism: Vaccinia virus WR.
Setting [29] is: source organism: Mammarenavirus lassaense.
The mark [30] stands for this setting: source organism: Mammarenavirus machupoense.
Setting [31] is: source organism: Mammarenavirus choriomeningitidis.
The mark [32] stands for this setting: source organism: Mammarenavirus juninense.

Bounds are passed on as bounds.

Regarding TTSLFLHLV, the IC50 (as a rule, the concentration that gives 50% inhibition) in the assay with HLA-A*11:01 [1] (setting [27]) was found to be 15.4 µM; with HLA-A*68:01 [2] (setting [27]), 11.1 µM; in the assay with HLA-A*33:01 [3] (setting [27]), 2270 nM; in the assay with HLA-A*31:01 [4] (setting [27]) it was 726 nM.

As to LLTACTIFYI, the IC50 stood at 7.39 µM with HLA-A*33:01 [5] (setting [28]); 18.8 µM in the assay with HLA-A*11:01 [1] (setting [28]); 627 nM with HLA-A*31:01 [4] (setting [28]); 829 nM in the assay with HLA-A*03:01 [6] (setting [28]); 4370 nM in the assay with HLA-A*68:01 [7] (setting [28]); 5.7 nM with HLA-A*02:01 [8].

As to SQIFNIISYI, the IC50 in the assay with HLA-A*24:02 [9] was 9.51 µM; with HLA-A*26:01 [10] it was 397 nM; in the assay with HLA-A*01:01 [11], 801 nM; with HLA-A*68:02 [12], 48 nM; in the assay with HLA-A*02:06, 23 nM; in the assay with HLA-A*02:03, 181 nM. Moreover, the IC50 with HLA-A*02:01 [8] came out at 111 nM; with HLA-A*29:02 [13], 1150 nM; with HLA-A*23:01 [14], 2380 nM; with HLA-A*30:02, 671 nM; with HLA-A*02:02 [15] it was 62 nM.

For NQGNILMDSI, the IC50 in the assay with HLA-A*01:01 [16] is 24 µM; with HLA-A*68:02 [17], 27.8 µM; with HLA-A*24:02 [9] it was 67.2 µM; with HLA-A*02:01 [18] it was 9.85 µM; in the assay with HLA-A*29:02 [19], 7.49 µM; with HLA-A*23:01 [20], ≥ 70 µM. Also, the IC50 with HLA-A*26:01 [10] was determined as 2780 nM; in the assay with HLA-A*02:06, 3090 nM; in the assay with HLA-A*02:03 it was 4040 nM; with HLA-A*30:02, 3950 nM; with HLA-A*02:02 [15] it was 3940 nM.

ADKNLIKCS: the IC50 is ≥ 70 µM with HLA-B*45:01; ≥ 70 µM with HLA-B*44:03; ≥ 70 µM with HLA-B*44:02; ≥ 70 µM in the assay with HLA-B*18:01; 316 nM with HLA-B*40:01; 102 nM in the assay with HLA-B*40:02.

In the case of IIVLIIITSI, the IC50 with HLA-B*27:05 was found to be 1880 nM.

Turning to TSFYLISIFL, the IC50 in the assay with HLA-A*33:01 [5] (setting [29]) was 31.1 µM; in the assay with HLA-A*11:01 [1] (setting [29]), 8.09 µM; with HLA-A*31:01 [21] (setting [29]) it was ≥ 70 µM; in the assay with HLA-A*68:01 [7] (setting [29]) it was 1910 nM.

Regarding MCISLSTAI, the IC50 with HLA-B*07:02 (setting [29]) stood at 24 µM; with HLA-B*51:01 (setting [29]), 6.76 µM; with HLA-B*53:01 (setting [29]) it was 1430 nM; with HLA-B*35:01 (setting [29]), 211 nM; with HLA-B*54:01 (setting [29]) it was 192 nM.

On to RQVSVKLLI, for which the IC50 with HLA-A*26:01 [22] is 6.34 µM; with HLA-A*01:01 [16], 23.8 µM; in the assay with HLA-A*68:02 [17], 15.1 µM; in the assay with HLA-A*29:02 [19], ≥ 70 µM; in the assay with HLA-A*02:02 [23], 17.9 µM; in the assay with HLA-A*02:06, 0.13 nM. The IC50 with HLA-A*02:03 amounted to 254 nM; with HLA-A*24:02 [24], 2540 nM; with HLA-A*02:01 [8] it was 250 nM; with HLA-A*23:01 [14], 835 nM; in the assay with HLA-A*30:02, 519 nM.

Regarding MLNNSFYYM, the IC50 with HLA-B*07:02 (setting [30]) amounted to 29.7 µM; with HLA-B*51:01 (setting [30]) it was 6.95 µM; with HLA-B*53:01 (setting [30]) it was 851 nM; in the assay with HLA-B*35:01 (setting [30]), 501 nM; with HLA-B*54:01 (setting [30]), 4960 nM.

With TLMSIVSSLH, the IC50 with HLA-A*33:01 [5] (setting [31]) was ≥ 70 µM; in the assay with HLA-A*11:01 [1] (setting [31]), 9.54 µM; in the assay with HLA-A*31:01 [21] (setting [31]) it was 11.4 µM; in the assay with HLA-A*68:01 [2] (setting [31]) it was 6.62 µM; in the assay with HLA-A*03:01 [6] (setting [31]), 3950 nM.

Regarding ACQEAVKLK, the IC50 in the assay with HLA-A*33:01 [5] (setting [32]) is ≥ 70 µM; with HLA-A*11:01 [1] (setting [32]), 6.7 µM; with HLA-A*31:01 [21] (setting [32]) it was ≥ 70 µM; with HLA-A*03:01 [25] (setting [32]), 16.7 µM; in the assay with HLA-A*68:01 [2] (setting [32]), ≥ 70 µM.

For the sequence ALMSIISTFH, the IC50 with HLA-A*68:01 [2] (setting [29]) was found to be 23.8 µM; with HLA-A*33:01 [3] (setting [29]) it was 3610 nM; in the assay with HLA-A*11:01 [26] it was 618 nM; in the assay with HLA-A*31:01 [4] (setting [29]), 3680 nM.

For the sequence TSAYLISIFL, the IC50 was ≥ 70 µM in the assay with HLA-A*11:01 [1] (setting [31]); 3.1 µM in the assay with HLA-A*31:01 [21] (setting [31]); 9.21 µM with HLA-A*03:01 [25] (setting [31]); 2180 nM with HLA-A*33:01 [3] (setting [31]); 1150 nM in the assay with HLA-A*68:01 [7] (setting [31]).
